# Laboratory results from the supplement of paper PMC9732359.
# ± gives the uncertainty stated by the source.
# Experiment: protein stability index of a GFP-peptide fusion (yeast GPS) (PSI 1-4); higher = more stable; sorted into four equal gates, so the index is relative within each strain
# Settings: pdr5∆
# Summary of the method: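 Tiled yeast protein peptides of 17 residues were each joined downstream of GFP, on plasmids that also express Cherry. The pooled library was maintained in yeast, and mid-log cultures in leucine-free medium were sorted into four equal gates on the GFP/Cherry ratio. Plasmids from every gate were amplified by PCR and sequenced on Illumina, with barcodes linking reads to strains. The protein stability index of a peptide is its gate-number-weighted read frequency summed over the gates.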
row,Sequence,protein stability index
1,YARADTHFLLNIYDQLR [RRP6],2.34 ± 0.042
2,YDKKKRVVVPQALRVLR [RPL16B],2.09 ± 0.059

# Same assay, conditions: san1∆
row,Sequence,protein stability index
1,VNECIAQSHQRFNAKVS [CDC53],2.64 ± 0.054
2,VNEMNDQLAQELKDLET [NNF1],3.27 ± 0.12
3,VNGLLQVLMDINTLNGG [GAL11],3 ± 0.075
4,VNQEFIFEAISLSDELN [YJL039C/NUP192],2.63 ± 0.051
5,VNSIALFVGTDRQLHEI [RPN14],2.25 ± 0.067
6,VPKEGLFYFDSSFRPCP [BRR2],3.38 ± 0.046
7,VPKLESSRTKFWSFLDS [YJL039C/NUP192],1.61 ± 0.13
8,VPLAMGIVSVSDPQMKV [RPN1],1.43 ± 0.1
9,VPPILIILPLDNATLTE [SSN2],2.58 ± 0.16
10,VPSHVPQVLINRDPVKH [SIR2],3.06 ± 0.12
11,VPSYIHVEKERASTELS [YIL149C/MLP2],2.76 ± 0.084
12,VPTGGASSAAAGAAGAA [RPP2B],3.17 ± 0.07
13,VQASVTSSTHERKSKTY [RET1],2.55 ± 0.056
14,VQCHGSFATATCVTCHW [SIR2],2.26 ± 0.045
15,VQDKDTLSNAERAKNVN [GAL11],2.71 ± 0.18
16,VQLPILKIIYTGLCSFD [YJL039C/NUP192],1.26 ± 0.12
17,VQRTMLELLNQLDGFSS [RPT5],2.83 ± 0.063
18,VQSQVDSSSVSEDSAVF [FAS1],3.12 ± 0.047
19,VQYLSGAHGNSDPVCLF [POP3],3.04 ± 0.11
20,VRDELRKVEKEKNEKER [UBP6],3.5 ± 0.13
21,VRHGRAGATTSRFIPLK [RPS15],2.89 ± 0.042
22,VRLPTKVLKISTRKTPN [RPS20],1.7 ± 0.15
23,VRNKSYPVYTRLRTLCR [DIS3],3.06 ± 0.11

row,Sequence,protein stability index
1,VRNVKGPVRENDILVLM [RPS28A],3.5 ± 0.13
2,VRPFGVSTLIAGFDPRD [PRE6],1.75 ± 0.17
3,VRSTIKFQLKKVLCLAV [RPL1A],1.29 ± 0.089
4,VRTSATFRLPKTLKLAR [RPL25],1.74 ± 0.26
5,VRYGSSLRRQVKKLEIQ [RPL43A],2.55 ± 0.2
6,VSEGTRAVTKYSSSTQA [HTB1],3.16 ± 0.054
7,VSHHATTFTHCEIHPSM [RPB2],2.46 ± 0.12
8,VSIDIEEPQLDLLDDVL [MTW1],3.24 ± 0.045
9,VSKSEPKFFLGEENRVR [QCR2],3.13 ± 0.053
10,VSMVKRAIDSLIQKGYL [CDC53],2.03 ± 0.11
11,VSNILSAFKFIHTQLSE [YJL039C/NUP192],1.47 ± 0.094
12,VSNSGAQDEEIHKQIVI [UBP6],3.08 ± 0.14
13,VSPNAAPRQEISEEETT [YAR002W/NUP60],2.9 ± 0.086
14,VSQMVAVVGQQIISGNR [RPO31],3 ± 0.094
15,VSTEGNVPQTLAPVPYE [RPL21A],3.11 ± 0.05
16,VSTLIAGFDPRDDEPKL [PRE6],3.12 ± 0.077
17,VSVEGVNVEKFNVEYFA [RPL6A],3.14 ± 0.042
18,VSYMMPSLYRLLNILIT [SRB8],1.1 ± 0.12
19,VTGFAEVGPWGSARTRW [FAS2],2.73 ± 0.093
20,VTHDCYRVTLESILQMN [RPC34],2.66 ± 0.16
21,VTLNKYCSGNIYDFHKM [YJL039C/NUP192],2.91 ± 0.04
22,VTNNVEEGEFIIDLYSL [TAF14],3.58 ± 0.057
23,VTQQKRSLDENRLEIKY [SMC1],2.12 ± 0.16

row,Sequence,protein stability index
1,VTRGISVLKDSDDKTRQ [PRE1],3.18 ± 0.056
2,VTSSFFYRGNYTDFENT [FAS1],2.43 ± 0.079
3,VVEDKPLLSKKERLVRD [SMB1],1.21 ± 0.13
4,VVGRTTRSNPPFKRKML [REC8],2.71 ± 0.055
5,VWYGLSDGEDGHIPWHI [SSN2],3.07 ± 0.053
6,VYNNSKDEYLAQLDGRI [NSL1],3.17 ± 0.049
7,WAADSVSSRVRGYTCQF [FAS1],2.71 ± 0.11
8,WADNYERKEQEEKEKEQ [BRN1],3.49 ± 0.11
9,WAGKRLWDQDIAIAGTG [COR1],2.56 ± 0.1
10,WGAETDELSMIMEHFSQ [RPS12],3.44 ± 0.071
11,WGTLQSVSPQMNAILTD [SMD1],2.75 ± 0.057
12,WLETYSENRDKFLQEFI [IRR1],2.58 ± 0.096
13,WLNFLRGTIPLLERYIG [PRP8],1.18 ± 0.077
14,WLVVPTIYNLQHHVTDA [YML031W/NDC1],1.46 ± 0.05
15,WNLEKWREIIEKVRDYE [IRR1],3.3 ± 0.054
16,WQELARSTDEFNGAQLK [RPT5],2.65 ± 0.24
17,WRKSDRELTKNILWRIA [SIR4],2.09 ± 0.25
18,WRLLFIDKFIMVVQKYK [GRR1],1.66 ± 0.083
19,WRVREASTSALLQLIQS [ECM29],1.04 ± 0.22
20,WTDPNLKSSLADVLSIL [RPN1],2.94 ± 0.096
21,WTIPHKKWNDLKNKNFK [SIR2],3.29 ± 0.11
22,WTVLFRKHHKKGITEEV [RPL24A],1.82 ± 0.15
23,WVFSYLRWFELKPKLYY [SIR3],2.5 ± 0.19
